Laboratory results taken from the nanobody polyreactivity screen of Harvey et al. (2022).

Assay: yeast display, Sf9 membrane polyspecificity reagent, FACS + sequencing; frameworks hold sequencing errors
How it was run: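 A synthetic nanobody library was expressed on Saccharomyces cerevisiae BJ5465 by galactose induction for 36–48 hours. The library was stained for 1 hour at 4 °C with 10% biotinylated, detergent-solubilized Sf9 membrane reagent and enriched with streptavidin microbeads before FACS. Low and high (top ~1%) gates were set on anti-HA fluorescence for expression and streptavidin fluorescence for reagent binding, and each polyreactivity label reflects the gate of origin.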

Row | Sequence | polyreactivity (PSR sort gate)
1 | QVQLVESGGGLVQAGGSLRLSCAASGNTFQYYALGWYRQAPGKERELVAAITTGGSKNFADSVKGRFTISRDNAKNTVYLQMNSLKPEDTAVYYCAARGGVSKRISDYWGQGTQVTVSS | low polyreactivity
2 | QVQLVESGGGLVQAGGSLRLSCAASGGTFRRYTMGWYTQAPGKVRELVAAITTSGGSTYYADSVKGRFTISRDNAKNTVYLQMNSLKPEDTAVYYCAATRRYSGDYWGQGTQVTVSS | high polyreactivity
3 | QVQLVESGGGLVQAGGSLRLSCAASGSTFRQYAMGWYRQAPGKERELVAAISSGGRTNYADSVKGRFTISRDNAKNTVYLQMNSLKPEDTAVYYCASDIRRRVPVRGYYYWGQGTQVTVSS | high polyreactivity
4 | QVQLVESGGGLVQAGGSLRLSCAASGSTFNQNAMGWYRQATGKERELVAAITVDGSSTYYADSVKGRFTISRDNAKNTVYLQMNSLKPEDTAVYYCAAGYSARSSGYTGGYDYWGQGTQVTVSS | high polyreactivity
5 | QVQLVESGGGLVQAGGSLRLSCAASGRTFYIYAMGWYRQAPVKERELVAAITYGGGRTFYADSVKGRFTISRDNAKNTVYLKMNSLKPEDTAVYYCARGDFYYHSRYTYYTSDYWGQGTQVTVSS | high polyreactivity
6 | QVQLVESGGGLVQAGGSLRLSCAASGRIFHSYAMGWYRQAPGKERELVAAISSGGNTYYADSVKGRFTISRDNAKNTVYLQMNSLKREDTAVYYCARDWDFLYDGFHSDSYEYWGQGTQVTVSS | low polyreactivity
7 | QVQLVESGGGLVQAGGSLRLICAASGIIFYYAMGWYRQAPGKEREFVASIRWSGDSTYYADSVKGRFTISRDNAKNTVYLQMNSLKPEDTAVYYCAAEPDSAVSYVSWRDYWGQGTQVTVSS | low polyreactivity
8 | QVQLVESVGGLVQAGGSLRLSCSASGITFSYNAMGWYRQAPGKERELVAAISDIGGSTYYADSVKGRFTISRDNAKNTVYLQMNSLKPEDTAVYYCAADEYYQDEYDYWGQGTQVTVSS | low polyreactivity
9 | QVQLVESGGGLVQAGGSLRLSCASSGSTFSRYALGWYRQAPGKERELVAAITSYGGSTYYADSVKGRFTISRDKAKNTFYLQMNSLKPEYTAVYYCAASYQVRYDYWGQGTQVTVSS | high polyreactivity
10 | QFQLVESGGGLVQAGPSLLLSFAASGNTLHVYAMGRYRQAPGKERELVAAITSDVSTYYADSVKGRFTISRDNAKNTVYLQMHSLKPEDTAVYYFATTGYGSYLIYWGQGTQVTVSS | low polyreactivity
11 | QVQLVESGGGLVQAGGSLRLSCAASGFIFAYNAMGWYRQAPGKERELVAAISIDTSTYYADSVKGRFTISRDNAKNTVYLQMNSLKPEDTAVYYCAADHVPFRLTELYYWGQGTQVTVSS | low polyreactivity
12 | QVQLVESGGGLVQAGGSLRLSCAASGLTFAYYDMGWYRQAPGKERELVAAITSGGTTNYADSVKGRFTISRDNAKNTVYLQMNSLKPEDTAVYYCNADYYSRIVGVRIYDYWGQGTQVTVSS | low polyreactivity
13 | QVQLVESGGGLVQAGGSLRLSCAASGSTFPGYAMGWYRQAPGKERELVAAITWSGVTTYYADTVKGRFTMSRDNAKNTVYIQMNSLKPEDTAVYYCATGTLYSDGAIYGYWGQATQVTVSS | low polyreactivity
14 | QVQLVESGGGLVQAGGSLRLSCAASGFIFTYYAMGWYRQAPGKERELVAAISSSGGRTAYADSVKGRFTISRDNAKNTVYLQMNSLKPEDTAVYFCNARGTYRVANYDYWGQGTQVTVSS | high polyreactivity
15 | QVQLVESGGGLVQAGGSLRLSCAASGRIFRVNTMGWYRQSPGKERELVAAIRSSGTRTYYADSVKGRFTISRDNAKNTVYLQMNSLKPEDTAVYYCAATGRRGSGYYYWGQGTQVTVSS | high polyreactivity
16 | QVQLVESWGGLVQAGGSLRLSCAASGSILYYYVMGWYRQAPGKERELVAAINSGGNTNYADSVKGRFTISRDNAKNTVYLQMNSLKTVDTAVYYCATASGDGVRTDFGNEYDYWGQGTQVNVSS | low polyreactivity
17 | QVQLVESGGGLVQAGGSLRLSCAPSGFTSWQYAMGWYRPAPGKERELVAAISVSGASTYYADSVKGRFTISRDNAKNTVYLQMNSLKPEDTAVYYCAAAYVRYPTTRYFYWGQGTQVTVSS | high polyreactivity
18 | QVQLVESGGGLVQAGGSLRLSCAAPGLTFWSYAMGWYRPAPGKERELVADITYRGGSTYYADSVKGRFTISRDNAKNTVYLQMNSLKPEDTAVYYCAARKKYRFDYWGQGTQVTVSS | high polyreactivity
19 | QVQLVESGGGLVQAGGSLRLSCAASGIIFGTNAMGWYRQAPGKERELVAYITSGGSTYADSVKGRFKISRDNAKNTVYLQMNSLKPEDTAVYSCAAYVFWAFYEYDYWGQGTQVTVSS | low polyreactivity
20 | QVQLVESWGGLFQAGGSLRLSCAASGRTFSYNAMGWYRQAPGKERELVAAMTWRGSTTYYADSVKGRFTISRDHAKNTVYLQMNSLKPEDTAVYYCADATGQPYILDYWGQGTQVTVSS | low polyreactivity
21 | QVQLVESGGGLVQAGGSLRLSCAASGITFNYYAMGWYRQAPGKEREFVAAITRSGGRTYYADSVKGRFTISRDNAKNTVYLQMNSLKPEDTAVYYCAAGYYILYIWKFDYWGQGTQVTVSS | high polyreactivity
22 | QVQLVESGGGLVQAGGSLRLSCAASGFTFDYYAMGWYRQAPGKERELVAAISKSGGSTYYADSVKGRFTISRDNAKNTVYLQLISLKPEDTAVYYCAAYTYVRSKNKGGDYWGQGTQVTVSS | high polyreactivity

Row | Sequence | polyreactivity (PSR sort gate)
23 | QVQLVESGGGLVQAGGSLRLSCAASGRTFAFNAMGWCRQAPGKDRELVAAISQGADSTYYADSVKGRFTISRDNAKNPVDLQMNSLKPEDTAVYYCAAEAQYNFYSYDYWGQGTQVTVSS | low polyreactivity
24 | QVQLVESGGGLVQAGGSLRLSCAASGFTFAVYDMGWYRQAPGKERELVAVISSVGSTNYADSVKGRFTISRDNAKNTVYLQMNSLKPEDTAVYYCNAVYWYRDRWYQTGYGYWGQGTQVTVSS | high polyreactivity
25 | QVQVVESGGGLVQAGGSLRLSCAASGFIFRYYAMGWYRQAPGKEREFVAAISTSAGSTYYADSVKGRFTISRDNAKNTVYLQMNSLKPEDTAVSYCAAEYWRRASYNYWGQGTQVTVSS | high polyreactivity
26 | QVQLVESGGGLVQAGGSLRLSCAASGLIFQVYDMGWYRQAPGKERELDAAISSGSNTNYADSVKGRFTISRDNAKNTVYLQMNSLIPEDTAVYYCAASWGYGGLTPDMGYWGQGTHVTVSS | low polyreactivity
27 | QVHLVESGGGLVQAGGSLRLSCAASGSIFGGYGMGWYRQAPGKEREMVAAITSGSSTYYADSVKGPFTISRDNAKNSVYFQLNSLKPEDTAVYYCAARPYPHSAYEGDYWGRGTQVTVSS | low polyreactivity
28 | QVQLVESGGGLVQAGGSLRLSCAASGLIFYDNMGWSRQAPGKERELVAAISSSGGSTSYADSVKGRFTISRDNAKNTVYVQMNSLKPVDTAVYYCAADSYPAYLGFVGFDYWGQGTQVTVSS | low polyreactivity
29 | QVQLVESGVGLVQAGGSLRLSCAASGRIFYLYAMGWYRQAPGKDSELVAAITWSGGSTTYADSVKVRFTISRDNAKNSVYLQMNSLKPEETAVYYCNADGWIFPSVSPMDYWGQGTQVTVSS | low polyreactivity
30 | QVQLVESGGGLVQAGGSLRLSCAASGRILTYYAMGWYRPAPGKERELVAAISWRAGSTYYADSVKGRFTISRDNAKNTVYLQMNSLKPEDTAVYYCAADLPYWYNRKPIFPYYYWGQGTQVTVSS | high polyreactivity
31 | QVQLVESGGGLVQAGGSLRLSCAASGITFYNSAMGLYRQAPGKERELVAAISSSGGSTYYADSVKGRFTISRDNAKNTVYLQMNSLKPEDTAVYYCAAVIVLSSEDTYYYWGQGTQVTVSS | high polyreactivity
32 | QDQLVESGGGLVQAGGSLRISCAASGITLEYNAMGGYRQAPGKERELVATIRSGGSTNYADSVKVRFTISRDNANNTVYLQMNSLKPEDTAVYYCAANHNTEYDWGQGTQVTVSS | high polyreactivity
33 | QVQLVESGGGLVQAGGILRLSCAASGSIFSGNDMGWYRQAPGKERELVASINRSGGSTNYAVSVKGRFTISRDNAKNTVYLQMNSLKPEDTAVYYCARDFSFLGNASARLDYDYWGQGSQVTVSS | low polyreactivity
34 | QVQLVESGGGLVQAGGSLRLSCAASGRIFSRYAMGWYRQAPGKERELVAAISRSGGSTYYADSVKGRFTISRDNAKNTVYLQMNSLKPEDTAVYYCAARNVFSYPPGSYYYWGQGTQVTVSS | high polyreactivity
35 | QVQLVESGGGLVQAGGSLRLSCAASGFTFGYYAMGWYRPAPGKERELVAGISSSGSRTYYADSVKGRFTISRDNAKNTVYLQMNSLKPEDTAVYYCNKYYSGKSYTGEDYWGQGTQVTVSS | high polyreactivity
36 | QVQLVESGGGLVQAGGSLRLSCAASGYIFPSYAMGWYRQAPGKERELVAAISESGGSTNYSDSVKGRFTISRDYAKNTVYLQLNSLKPEDTAVYYCAAGYYTVPPDMNSWGQGTQVTVSS | low polyreactivity
37 | QVQLVESGGGLVQAGGSLRLSCAASGFIFVYNAMGWYRQAPGKERELVAVISSGGSTYYADSVKGRFTISRDNAKNTVYLQMNSLKPEDTAVYYCNKRRYDIKDEYDYWGQGTQVTVSS | low polyreactivity
38 | QVQLVESGGGLVQAGGSLRLSCAASGYTFVLYAMGWYRQAPGKERELVAAIRWSGGTTYYADSVKGRFTISRDNAKNTVYCQMNSLKPEDTAVYYCAGWDYTGNVVTGDYWGQCTQVTVSS | high polyreactivity
39 | QVQLVESGRGLVQAGGSLRLSCAASGRTFPYYAMGWYRQAPGKERELVAAISSSGGSTYYADSVKGRFTISRDNAKNTVYLQMNSLKPEDTAVYYCNRYSRLYLTDDDYWGQGTLVTVSS | high polyreactivity
40 | QVQLVESGGGLVQAGGSLRISCAASGRTFPGYTMGWYRQAPGKERELVAAITRVGTTYYADSVKGRFTISRDNAKNTVYLQMNSLKPEDTAVYYCAAVISQGFIRYYYWGQGTQVTVSS | high polyreactivity
41 | QVQLVESGGGLVQAGGSLRLSCAASGRTFWNNAMGWYRQAPGKERELVAAISVRGGSTYYADSVKGRFTISRDNAKNTVYLQMNSLKPEDTAVYYCATRSRGWIAPPWQGSDGYYYWGQGTQVTVSS | low polyreactivity
42 | QVQLVESGGGLVQAGGSLRLSCAASGRIFYRNAMGWYRQAPGKDRELVAGISKRGGSTYYADSVKGRFTISRDNAKNTVYLQMTSLKPEDTAVYYCNKVSFLNSHKSRGNRYYYWGQGTQVTVSS | high polyreactivity
43 | QVQLVESGGGLVQAGGSLRLSCAASGSIFGLNAMGWYRQAPGKERELVAAINSDGDTYYADSVKGRFTISRDNAKNTVCLQMNSLKPEDTAVYYCAALQRRDHNGDYWGQGTQVTVSS | low polyreactivity
